Measured values taken from paper PMC2115109.
“And” between values parts separate entries of the source, which are not always exact repeats. Equal values may be shown once.

Experiments:
[1] = molecular target: F-actin (actin filaments) from rabbit skeletal muscle (rabbit) (UniProt P68135); experiment: co-sedimentation
[2] = molecular target: monomeric actin from rabbit skeletal muscle (rabbit) (UniProt P68135); experiment: pull-down

Chain of CT28N, 28-kD chymotryptic fragment from the NH2-terminal half of human plasma gelsolin (domain or fragment) (P06396 151-406): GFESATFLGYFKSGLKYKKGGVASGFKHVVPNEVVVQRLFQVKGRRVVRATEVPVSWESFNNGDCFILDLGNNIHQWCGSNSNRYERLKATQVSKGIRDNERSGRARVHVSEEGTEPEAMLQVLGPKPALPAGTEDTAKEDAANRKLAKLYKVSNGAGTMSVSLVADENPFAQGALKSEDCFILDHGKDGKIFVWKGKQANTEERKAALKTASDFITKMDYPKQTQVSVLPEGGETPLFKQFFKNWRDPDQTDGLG
Chain of CT45N, 45-kD NH2-terminal half chymotryptic fragment of human plasma gelsolin (domain or fragment) (P06396 1-406): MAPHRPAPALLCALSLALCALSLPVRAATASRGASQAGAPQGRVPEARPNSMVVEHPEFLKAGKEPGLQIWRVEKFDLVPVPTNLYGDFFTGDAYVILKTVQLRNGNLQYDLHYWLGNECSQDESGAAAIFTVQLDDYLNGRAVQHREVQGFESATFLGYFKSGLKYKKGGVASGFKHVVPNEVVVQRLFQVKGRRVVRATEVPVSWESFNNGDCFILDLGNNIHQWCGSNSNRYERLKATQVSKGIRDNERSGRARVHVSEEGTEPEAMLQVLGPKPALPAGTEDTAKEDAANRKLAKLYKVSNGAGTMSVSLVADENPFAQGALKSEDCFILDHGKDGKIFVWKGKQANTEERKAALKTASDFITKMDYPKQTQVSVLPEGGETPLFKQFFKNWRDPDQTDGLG

Row | Ka [1] [M⁻¹] | Kd [1] | percent of input sedimented [1] [%] | Substance | percent sedimented [1] [%] | radioactivity on the beads [2] [cpm]
1 | 5e+06 | 200 nM and 280 nM | 100 | CT28N, 28-kD chymotryptic fragment from the NH2-terminal half of human plasma gelsolin (domain or fragment) | 100 | 
2 |  |  |  | CT45N, 45-kD NH2-terminal half chymotryptic fragment of human plasma gelsolin (domain or fragment) | 67 | 540
